Reference: patent US20240076332A1

Molecular target: cell surface bound heterodimeric receptor protein comprising a tyrosine kinase FGFR1c and a beta-Klotho protein (UniProt P11362)
Assay: cell-based or functional assay

UniProt P11362, sequence (P11362 22-822, chain 1 of 2): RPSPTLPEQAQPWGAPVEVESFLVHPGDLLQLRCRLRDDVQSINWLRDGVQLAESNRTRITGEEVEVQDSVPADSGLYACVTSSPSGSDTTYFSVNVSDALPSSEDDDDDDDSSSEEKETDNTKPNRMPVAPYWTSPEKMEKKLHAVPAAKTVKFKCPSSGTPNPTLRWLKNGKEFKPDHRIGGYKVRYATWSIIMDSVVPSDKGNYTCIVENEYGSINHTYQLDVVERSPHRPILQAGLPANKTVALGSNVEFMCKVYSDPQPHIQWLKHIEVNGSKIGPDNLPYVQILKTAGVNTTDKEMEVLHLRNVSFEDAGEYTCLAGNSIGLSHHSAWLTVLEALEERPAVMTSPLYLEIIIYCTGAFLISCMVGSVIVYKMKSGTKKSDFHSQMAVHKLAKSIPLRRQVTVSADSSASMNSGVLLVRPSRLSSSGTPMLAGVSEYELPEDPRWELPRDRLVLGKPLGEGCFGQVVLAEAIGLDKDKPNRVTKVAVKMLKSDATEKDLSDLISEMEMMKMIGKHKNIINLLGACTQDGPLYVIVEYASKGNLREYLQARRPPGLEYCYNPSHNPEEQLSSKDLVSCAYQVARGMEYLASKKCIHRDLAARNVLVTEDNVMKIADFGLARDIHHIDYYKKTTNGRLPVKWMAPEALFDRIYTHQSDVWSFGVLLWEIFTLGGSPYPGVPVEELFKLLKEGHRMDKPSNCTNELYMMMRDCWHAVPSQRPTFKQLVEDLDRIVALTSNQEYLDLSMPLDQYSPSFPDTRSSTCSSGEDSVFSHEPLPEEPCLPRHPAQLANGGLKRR
UniProt P11362, sequence (Q86Z14 whole entry, chain 2 of 2, further chain): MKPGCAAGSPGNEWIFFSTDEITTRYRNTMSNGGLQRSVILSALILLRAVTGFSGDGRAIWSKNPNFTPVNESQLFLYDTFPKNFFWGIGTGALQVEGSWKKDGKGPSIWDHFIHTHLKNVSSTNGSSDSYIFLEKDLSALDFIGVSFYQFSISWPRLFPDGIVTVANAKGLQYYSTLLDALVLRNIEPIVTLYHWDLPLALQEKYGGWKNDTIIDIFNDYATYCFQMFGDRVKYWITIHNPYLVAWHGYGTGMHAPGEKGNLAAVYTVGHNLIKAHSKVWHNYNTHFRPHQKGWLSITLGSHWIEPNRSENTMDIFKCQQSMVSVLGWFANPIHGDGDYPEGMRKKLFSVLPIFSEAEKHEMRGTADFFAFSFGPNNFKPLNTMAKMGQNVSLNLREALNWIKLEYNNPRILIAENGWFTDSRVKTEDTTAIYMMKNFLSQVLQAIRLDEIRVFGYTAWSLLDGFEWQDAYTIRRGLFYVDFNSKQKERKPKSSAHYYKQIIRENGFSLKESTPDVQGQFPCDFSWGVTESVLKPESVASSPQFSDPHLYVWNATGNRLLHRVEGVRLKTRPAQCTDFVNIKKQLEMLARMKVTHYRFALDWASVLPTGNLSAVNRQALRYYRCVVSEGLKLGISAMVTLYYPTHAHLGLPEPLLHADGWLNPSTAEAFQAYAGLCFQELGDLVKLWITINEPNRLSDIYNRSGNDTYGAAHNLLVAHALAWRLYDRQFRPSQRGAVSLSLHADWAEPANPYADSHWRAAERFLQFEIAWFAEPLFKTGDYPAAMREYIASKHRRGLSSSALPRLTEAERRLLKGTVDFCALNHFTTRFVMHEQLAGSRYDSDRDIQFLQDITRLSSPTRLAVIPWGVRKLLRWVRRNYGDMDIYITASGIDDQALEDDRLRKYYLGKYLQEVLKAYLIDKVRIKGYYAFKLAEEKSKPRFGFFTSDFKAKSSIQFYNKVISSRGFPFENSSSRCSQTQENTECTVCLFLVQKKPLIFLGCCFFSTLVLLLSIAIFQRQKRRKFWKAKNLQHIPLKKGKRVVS

EC50 of firefly luciferase reporter-gene response (Gal4-Elk-1), HEK293 cells with FGFR1c and optimized synthetic beta-Klotho gene, treated with increasing concentrations of human FGF21: 0.003 µg/mL | EC50 of firefly luciferase reporter-gene response, HEK293 cells with FGFR1c and native beta-Klotho gene, freeze, thaw and use format: 0.024 µg/mL | EC50 of firefly luciferase reporter-gene response, HEK293 cells with FGFR1c and optimized synthetic beta-Klotho gene, freeze, thaw and use format: 0.007 µg/mL | EC50 of firefly luciferase reporter-gene response, Jurkat cells transfected with the native beta-Klotho gene (Table 1): 0.172 µg/mL | EC50 of firefly luciferase reporter-gene response, Jurkat cells with FGFR1c and native beta-Klotho gene, freeze, thaw and use format: 0.17 µg/mL
Substance: human FGF21 (from UniProt Q9NSA1 29-209) (ligand)
